Reference: PMC11218354
pKd: −log10 of the molar value.

What was measured:
nucleolin [1] = molecular target: nucleolin (UniProt P19338); assay: SPR; conditions: SPR: 1x PBS, nucleolin on CM5 chip, analyte 0.156-10 uM, regeneration 50 mM NaOH, temperature not stated, ELONA: 1x PBS, 1 mM MgCl2, 0.05% Tween 20, 1 uM …
nucleolin [2] = molecular target: nucleolin (UniProt P19338); assay: ELONA; conditions: 1 mM Mg2+; U6 = 5-fluorouridine (5FU replaces T6; printed F); ELONA: 1x PBS, 1 mM MgCl2, 0.05% Tween 20, 1 uM biotin

Sequence of nucleolin (P19338 2-710): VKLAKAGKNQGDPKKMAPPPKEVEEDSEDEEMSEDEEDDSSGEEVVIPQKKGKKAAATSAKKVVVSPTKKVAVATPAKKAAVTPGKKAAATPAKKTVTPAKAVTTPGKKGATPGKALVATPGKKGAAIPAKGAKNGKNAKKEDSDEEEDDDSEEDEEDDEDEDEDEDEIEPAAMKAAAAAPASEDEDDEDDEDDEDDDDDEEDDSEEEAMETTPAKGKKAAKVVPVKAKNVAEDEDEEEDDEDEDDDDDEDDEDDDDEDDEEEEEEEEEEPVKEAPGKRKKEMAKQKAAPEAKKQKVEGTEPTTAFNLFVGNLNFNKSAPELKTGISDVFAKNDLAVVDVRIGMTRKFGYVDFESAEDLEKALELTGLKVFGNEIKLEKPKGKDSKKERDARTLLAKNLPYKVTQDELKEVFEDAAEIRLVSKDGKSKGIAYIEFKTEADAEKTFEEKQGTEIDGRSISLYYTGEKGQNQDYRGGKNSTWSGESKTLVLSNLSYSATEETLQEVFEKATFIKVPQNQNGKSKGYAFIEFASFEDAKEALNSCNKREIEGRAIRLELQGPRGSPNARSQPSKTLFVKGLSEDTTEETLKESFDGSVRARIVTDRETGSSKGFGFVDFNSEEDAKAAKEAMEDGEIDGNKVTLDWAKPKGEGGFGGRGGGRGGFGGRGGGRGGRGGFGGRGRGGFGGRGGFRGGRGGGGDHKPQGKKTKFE

## GGTGGTGGTGGTTGTGGTGGTGGTGG [AS1411]
Nucleolin [1]
  pKd: 7.16

## GGTGGTGGTGGTTGTGGTGGTGGTGG [ASP (AS1411-paclitaxel, thioether linker)]
Nucleolin [1]; 3'-amino DNA conjugated to paclitaxel through thioether linker
  pKd: 6.60

## GGTGGUGGTGGTTGTGGTGGTGGTGG [FA (sequence 2, 5FU at site 6 of AS1411)]
Nucleolin [1]; U6 = 5-fluorouridine (5FU replaces T6; printed F)
  pKd: 7.61

## GGTGGUGGTGGTTGTGGTGGTGGTGG [FA, biotinylated (sequence 2)]
Nucleolin [2]
  binding signal: > 100 % of AS1411

## GGTGGUGGTGGTTGTGGTGGTGGTGG [FASP (FA-paclitaxel, thioether linker)]
Nucleolin [1]; U6 = 5-fluorouridine (5FU replaces T6), 3'-amino DNA conjugated to paclitaxel through thioether linker
  pKd: 7.21
